Source: IntAct's records for PubMed 30241482

B1: Protein ripply3 (Homo sapiens), P57055 (parent)
chain: MEPEAAAGARKARGRGCHCPGDAPWRPPPPRGPESPAPWRPWIQTPGDAELTRTGRPLEPRADQHTFGSKGAFGFQHPVRVYLPMSKRQEYLRSSGEQVLASFPVQATIDFYDDESTESASEAEEPEEGPPPLHLLPQEVGGRQENGPGGKGRDQGINQGQRSSGGGDHWGEGPLPQGVSSRGGKCSSSK
partner: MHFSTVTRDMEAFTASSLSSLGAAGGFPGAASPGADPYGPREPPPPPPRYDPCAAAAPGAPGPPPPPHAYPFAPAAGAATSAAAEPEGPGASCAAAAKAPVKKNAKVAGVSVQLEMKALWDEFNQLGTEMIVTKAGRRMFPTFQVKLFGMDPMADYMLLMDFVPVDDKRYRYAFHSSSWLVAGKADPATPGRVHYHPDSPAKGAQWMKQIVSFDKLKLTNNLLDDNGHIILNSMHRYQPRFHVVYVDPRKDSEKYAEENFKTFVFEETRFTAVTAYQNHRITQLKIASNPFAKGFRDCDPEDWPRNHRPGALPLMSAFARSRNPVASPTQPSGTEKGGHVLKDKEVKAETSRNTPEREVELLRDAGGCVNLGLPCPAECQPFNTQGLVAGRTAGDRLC

Variants of: B1
Conditions: with tbx1_human TBX1, O43435

Row | Variant | effect of a mutation on the interaction
1 | MEPEAAAGARKARGRGCHCPGDAPWRPPPPRGPESPAPWRPWIQTPGDAELSRTGRPLEPRADQHTFGSKGAFGFQHPVRVYLPMSKRQEYLRSSGEQVLASFPVQATIDFYDDESTESASEAEEPEEGPPPLHLLPQEVGGRQENGPGGKGRDQGINQGQRSSGGGDHWGEGPLPQGVSSRGGKCSSSK | decreasing interaction strength
2 | MEPEAAAGARKARGRGCHCPGDAPWRPPPPRGPESPAPWRPWIQTPGDAELTRTGRPLEPRADQHTFGSKGAFGFQHPVRVYLPMSKRQEYLRSSGEQVLASFPVQATIDFYNDESTESASEAEEPEEGPPPLHLLPQEVGGRQENGPGGKGRDQGINQGQRSSGGGDHWGEGPLPQGVSSRGGKCSSSK | with no effect
3 | MEPEAAAGARKARGRGCHCPGDAPWRPPPPRGPESPAPWRPWIQTPGDAELTRTGRPLEPRADQHTFGSKGAFGFQHPVRVYLPMSKRQEYLRSSGEQVLASFPVQATIDFYDDESTESASEAEEPEEGPPPLHLLPQEVGGRQENGPGGKGRDQGINQGQRSSGGGDHWGEGPLPQGDSSRGGKCSSSK | with no effect
4 | MEPEAAAGARKARGRGCHCPGDAPWRPPPLRGPESPAPWRPWIQTPGDAELTRTGRPLEPRADQHTFGSKGAFGFQHPVRVYLPMSKRQEYLRSSGEQVLASFPVQATIDFYDDESTESASEAEEPEEGPPPLHLLPQEVGGRQENGPGGKGRDQGINQGQRSSGGGDHWGEGPLPQGVSSRGGKCSSSK | with no effect
